Test results from paper PMC8386104 (RSC Chemical Biology, 2020).

Legend:
MDMX = target: T1, MDMX (UniProt O15151 1-490); assay: fluorescence polarisation
T1 sequence: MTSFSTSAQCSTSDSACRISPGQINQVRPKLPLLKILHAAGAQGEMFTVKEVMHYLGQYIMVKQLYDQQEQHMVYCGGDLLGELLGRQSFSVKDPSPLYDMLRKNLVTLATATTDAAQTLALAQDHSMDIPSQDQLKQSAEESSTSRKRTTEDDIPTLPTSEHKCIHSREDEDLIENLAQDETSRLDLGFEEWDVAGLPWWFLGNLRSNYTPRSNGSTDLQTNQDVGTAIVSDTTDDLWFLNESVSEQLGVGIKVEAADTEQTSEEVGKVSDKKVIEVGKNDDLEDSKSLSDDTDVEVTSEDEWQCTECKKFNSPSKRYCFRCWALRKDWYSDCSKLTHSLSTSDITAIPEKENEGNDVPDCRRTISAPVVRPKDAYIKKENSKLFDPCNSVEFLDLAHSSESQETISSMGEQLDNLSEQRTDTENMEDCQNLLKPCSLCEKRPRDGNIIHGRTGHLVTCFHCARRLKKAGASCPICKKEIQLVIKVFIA

MDM2 = MDM2 (UniProt Q00987 1-491); assay: fluorescence polarisation
Sequence of MDM2 (Q00987 whole entry): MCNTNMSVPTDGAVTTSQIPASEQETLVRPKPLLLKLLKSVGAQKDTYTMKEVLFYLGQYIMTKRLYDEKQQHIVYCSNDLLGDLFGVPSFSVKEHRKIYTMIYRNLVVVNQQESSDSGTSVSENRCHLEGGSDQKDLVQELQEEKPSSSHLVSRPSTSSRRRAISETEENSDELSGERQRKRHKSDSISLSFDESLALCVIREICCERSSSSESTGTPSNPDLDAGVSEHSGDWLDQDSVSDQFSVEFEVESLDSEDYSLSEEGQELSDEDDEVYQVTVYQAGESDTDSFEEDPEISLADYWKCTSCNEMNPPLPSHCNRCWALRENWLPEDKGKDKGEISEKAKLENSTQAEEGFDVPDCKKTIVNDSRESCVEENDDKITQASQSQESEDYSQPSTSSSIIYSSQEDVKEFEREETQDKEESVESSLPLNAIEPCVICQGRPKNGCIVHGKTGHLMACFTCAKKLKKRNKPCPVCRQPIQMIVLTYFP

IC50 (MDMX): < 1 nM | IC50 (MDM2): < 1 nM
B1: PF4P_pDI (designed binder)
chain: LTFEHYWALLT
modifications: C-terminal amide
